Experimental data from patent publication US20250297255A1 (ARSENAL BIOSCIENCES, published 2025).

B1: TMPRSS4 Ab5 scFv (VH-VL) (scFv)
scFv: QVQLVQSGAEVKKPGSSVKVSCKASGYTFTSYYMHWVRQAPGQGLEWMGRIIPILGATDYAQKFQGRVTITADESTSTAYMELSSLRSEDTAVYYCARAGYSSIAARPAFWGQGTLVTVSSGGGGSGSGGGGSGGGGSEIVMTQSPATLSVSPGERATLSCRASQSVSSNLAWYQQKPGQAPRLLIYGASTRATGIPARFSGSGSGTEFTLTISSLQSEDFAVYYCQQYYSPFPLTFGGGTKVEIK
notes: on monoclonal phage in the screen
B2: TMPRSS4 Ab50 scFv (VH-VL) (scFv)
scFv: QVQLVQSGAEVKKPGASVKVSCKASGYTFTGYYMHWVRQAPGQGLEWMGWINPNSGGTHYAQKFQGRVTMTRDTSTSTVYMELSSLRSEDTAVYYCARVRIGWLQSPPLYWGQGTLVTVSSGGGGSGGGGSGGGGSDIQMTQSPSSLSASVGDRVTITCRASQGISNYLAWYQQKPGKAPKLLIYATSRLQSGVPSRFSGSGSGTDFTLTISSLQPEDFATYYCQQSYKTPLTFGGGTKVEIK
notes: as for B1
B3: TMPRSS4 Ab54 scFv (VH-VL) (scFv)
scFv: QVQLVQSGAEVKKPGASVKVSCKASGYTFTSYYMQWVRQAPGQGLEWMGWMNPNSGNTGYAQKFQGRVTMTRDTSTSTVYMELSSLRSEDTAVYYCARVRIGWLQSPPLYWGQGTLVTVSSGGGGSGGGGSGGGGSDIQMTQSPSSLSASVGDRVTITCRASQGISNYLAWYQQKPGKAPKLLIYAASSLQSGVPSRFSGSGSGTDFTLTISSLQPEDFATYYCQQSYSIPFTFGPGTKVDIK
notes: as for B1
B4: TMPRSS4 Ab52 scFv (VH-VL) (scFv)
scFv: QVQLVQSGAEVKKPGASVKVSCKASGYTFTRYYIHWVRQAPGQGLEWMGWMNPNSGNTGFAQKLQGRVTMTRDTSTSTVYMELSSLRSEDTAVYYCARGPFPRGRLDLWGQGTLVTVSSGGGGSGGGGSGGGGSDIQMTQSPSSLSASVGDRVTITCRASQGISRWLGWYQQKPGKAPKLLIYGASNLQTGVPSRFSGSGSGTDFTLTISSLQPEDFATYYCQQSYSSPRTFGQGTKVEIK
notes: as for B1
B5: TMPRSS4 Ab53 scFv (VH-VL) (scFv)
scFv: QVQLVQSGAEVKKPGASVKVSCKASGYTFTRYYMHWVRQAPGQGLEWMGIINPTGGSTSYAQKFQGRVTMTRDTSTSTVYMELSSLRSEDTAVYYCARGRTWIQSSLGYWGQGTLVTVSSGGGGSGGGGSGGGGSDIQMTQSPSSLSASVGDRVTITCRASRSINRWLAWYQQKPGKAPKLLIYGASTLQSGVPSRFSGSGSGTDFTLTISSLQPEDFATYYCQQSYSTPTFGGGTKVEIK
notes: as for B1
B6: TMPRSS4 Ab59 scFv (VH-VL) (scFv)
scFv: QVQLVQSGAEVKKPGASVKVSCKASGGTFSSYTLSWVRQAPGQGLEWMGWIHPKSGVTKNAQKFQGRVTMTRDTSTSTVYMELSSLRSEDTAVYYCARGWVYGRMDAWGQGTTVTVSSGGGGSGGGGSGGGGSEIVMTQSPATLSVSPGERATLSCRASQSVSSNYLAWYQQKPGQAPRLLIYGASTRATGIPARFSGSGSGTEFTLTISSLQSEDFAVYYCQQYGTLPYTFGQGTKVEIK
notes: as for B1
B7: TMPRSS4 Ab6 scFv (VH-VL) (scFv)
scFv: QVQLVQSGAEVKKPGASVKVSCKASGYTFTSYYMHWVRQAPGQGLEWLGIINPSDYTTSYAQKFQGRVTMTRDTSTSTVYMELSSLRSEDTAVYYCARVASSSWYPGDENWYFDLWGRGTLVTVSSGGGGSGSGGGGSGGGGSDIVMTQSPDSLAVSLGERATINCKSSQSVLYSSNNKNYLAWYQQKPGQPPKLLIYWASTRESGVPDRFSGSGSGTDFTLTISSLQAEDVAIYYCQQYYAIPWTFGQGTKVEIK
notes: as for B1
B8: TMPRSS4 Ab60 scFv (VH-VL) (scFv)
scFv: QVQLVQSGAEVKKPGASVKVSCKASGYSFTTYYIHWVRQAPGQGLEWMGIINPSGGSTSYAQKFQGRVTMTRDTSTSTVYMELSSLRSEDTAVYYCARGGYYGSGYNSVGYWGPGTLVTVSSGGGGSGGGGSGGGGSEIVMTQSPATLSVSPGERATLSCRASQSVSSNTLAWYQQKPGQAPRLLIYGASTRATGIPARFSGSGSGTEFTLTISSLQSEDFAVYYCQQYGSSPLTFGPGTKVDIK
notes: as for B1
B9: TMPRSS4 Ab61 scFv (VH-VL) (scFv)
scFv: QVQLVQSGAEVKKPGASVKVSCKASGYTFTNYYMHWVRQAPGQGLEWMGWMNPNSGNTGYAQNLQGRVTMTRDTSTSTVYMELSSLRSEDTAVYYCARGRTWFRSGMDVWGQGTTVTVSSGGGGSGGGGSGGGGSEIVMTQSPATLSVSPGERATLSCRASQSVSSYLAWYQQKPGQAPRLLIYGASTRATGIPARFSGSGSGTEFTLTISSLQSEDFAVYYCQQYDISVTFGPGTKVDIK
notes: as for B1
B10: TMPRSS4 Ab62 scFv (VH-VL) (scFv)
scFv: QVQLVQSGAEVKKPGASVKVSCKASGYTFTDYYIHWVRQAPGQGLEWMGWISTYNGNTNYAQKLQGRVTMTRDTSTSTVYMELSSLRSEDTAVYYCARGMVRGMDVWGQGTMVTVSSGGGGSGGGGSGGGGSDIVMTQSPDSLAVSLGERATINCKSSQSVLYSSNNKNYLAWYQQKPGQPPKLLIYWASTRESGVPDRFSGSGSGTDFTLTISSLQAEDVAVYYCQQYYTTPWTFGQGTRLEIK
notes: as for B1
B11: TMPRSS4 Ab63 scFv (VH-VL) (scFv)
scFv: QVQLVQSGAEVKKPGASVKVSCKASGYTFTGYRMHWVRQAPGQGLEWMGVINPNTGTARFAQKFQGRVTMTRDTSTSTVYMELSSLRSEDTAVYYCASVGVYWYFDLWGRGTLVTVSSGGGGSGGGGSGGGGSDIVMTQSPDSLAVSLGERATINCKSSQSVLYSSNNKNYLAWYQQKPGQPPKLLIYWASTRESGVPDRFSGSGSGTDFTLTISSLQAEDVAVYYCQQYYSAPLTFGGGTKVEIK
notes: as for B1
B12: TMPRSS4 Ab64 scFv (VH-VL) (scFv)
scFv: QVQLVQSGAEVKKPGASVKVSCKASGYTFTGYYMHWVRQAPGQGLEWMGMINPSGGGTTYAQKFQGRVTMTRDTSTSTVYMELSSLRSEDTAVYYCARDRRSMITFRTDYWGQGTLVTVSSGGGGSGGGGSGGGGSDIVMTQSPDSLAVSLGERATINCKSSQSVLYSSNNKNYLAWYQQKPGQPPKLLIYWASTRESGVPDRFSGSGSGTDFTLTISSLQAEDVAVYYCQQYYSTPYTFGQGTKLEIK
notes: as for B1
B13: TMPRSS4 Ab65 scFv (VH-VL) (scFv)
scFv: QVQLVQSGAEVKKPGASVKVSCKASGYTFTGYYMHWVRQAPGQGLEWMGWMNPNSGNTGYAQKFQGRVTMTRDTSTSTVYMELSSLRSEDTAVYYCAGRKWLGLDFYNWFDPWGQGTLVTVSSGGGGSGGGGSGGGGSDIVMTQSPDSLAVSLGERATINCKSSQSVLYSSNNKNYLAWYQQKPGQPPKLLIYWASTRQSGVPDRFSGSGSGTDFTLTISSLQAEDVAVYYCQQYYSTPWTFGQGTKVEIK
notes: as for B1
B14: TMPRSS4 Ab66 scFv (VH-VL) (scFv)
scFv: QVQLVQSGAEVKKPGSSVKVSCKASGGTFSSYAISWVRQAPGQGLEWVGGIMPIFGTANYAQKFQGRVTITADESPSTAYMELSSLRSEDTAVYYCATGRRELLNWGQGTLVTVSSGGGGSGGGGSGGGGSEIVMTQSPATLSVSPGERATLSCRASQSVNSRFLAWYQQKPGQAPRLLIYGASTRATGIPARFSGSGSGTEFTLTISSLQSEDFAVYYCMQGTHWPYTFGQGTKVEIK
notes: as for B1
B15: TMPRSS4 Ab67 scFv (VH-VL) (scFv)
scFv: QVQLVQSGAEVKKPGSSVKVSCKASGYTFTSYDINWVRQAPGQGLEWMGGIIPIFGTANYAQKFQGRVTITADESTSTAYMELSSLRSEDTAVYYCATTPGDAFDIWGQGTMVTVSSGGGGSGGGGSGGGGSDIVMTQSPDSLAVSLGERATINCKSSQSVLYSSNNKNYLAWYQQKPGQPPKLLIYWASTRESGVPDRFSGSGSGTDFTLTISSLQAEDVAVYYCQQYSDTPLTFGQGTKVEIK
notes: as for B1
B16: TMPRSS4 Ab69 scFv (VH-VL) (scFv)
scFv: EVQLLESGGGLVQHGGSLRLSCAASGFAFSSYVLHWVRQAPGKGLEWVSSISSSSSYIYYADSVKGRFTISRDNSKNTLYLQMNSLRAEDTAVYYCARGDRYPGLPNYWGQGTLVTVSSGGGGSGGGGSGGGGSDIQMTQSPSSLSASVGDRVTITCRASQGISSWLAWYQQKPGKAPKLLIYQASNKDTGVPSRFSGSGSGTDFTLTISSLQPEDFATYYCQQSYRIPWTFGQGTKVEIK
notes: as for B1
B17: TMPRSS4 Ab7 scFv (VH-VL) (scFv)
scFv: QVQLVQSGAEVKKPGASVKVSCKASGYTFSRYFMHWVRQAPGQGLEWVGWINPNSGNTGYAQKFQGRVTMTRDTSTSTVYMELSSLRSEDTAVYYCARVVTGGRLDVWGQGTTVTVSSGGGGSGGGGSGGGGSEIVMTQSPATLSVSPGERATLSCRASQRVSNNYLAWYQQKPGQAPRLLIYGASTRASGIPARFSGSGSGTEFTLTISSLQSEDFAVYYCQQYGSTPYTFGQGTKVEIK
notes: as for B1
B18: TMPRSS4 Ab70 scFv (VH-VL) (scFv)
scFv: EVQLLESGGGLVQPGGSLRLSCAASGFAFSGTWMQWVRQAPGKGLEWVSDISGSSRDTNYADSVKGRFTISRDNSKNTLYLQMNSLRAEDTAVYYCAKDHWDSYGYLDYWGQGTLVTVSSGGGGSGGGGSGGGGSDIQMTQSPSSLSASVGDRVTITCRASQSISGWLAWYQQKPGKAPKLLIYAASTLRDGVPSRFSGSGSGTDFTLTISSLQPEDFATYYCQQANSFPLTFGQGTKVEIK
notes: as for B1
B19: TMPRSS4 Ab71 scFv (VH-VL) (scFv)
scFv: EVQLLESGGGLVQPGGSLRLSCAASGFMFDYYAMHWVRQAPGKGLEWVSLISYDGRNKYYADSVKGRFTISRDNSKNTLYLQMNSLRAEDTAVYYCARPGSYSRFQHWGQGTLVTVSSGGGGSGGGGSGGGGSDIQMTQSPSSLSASVGDRVTITCRASQGISNNLNWYQQKPGKAPKLLIYAASSLQSGVPSRFSGSGSGTDFTLTISSLQPEDFATYYCQQANNFPITFGQGTKVEIK
notes: as for B1
B20: TMPRSS4 Ab72 scFv (VH-VL) (scFv)
scFv: EVQLLESGGGLVQPGGSLRLSCAASGFTFGAYVMHWVRQAPGKGLEWVSSISGGSTYYADSVKGRFTISRDNSKNTLYLQMNSLRAEDTAVYYCARHPVRGVIGAGWFDPWGQGTLVTVSSGGGGSGGGGSGGGGSDIQMTQSPSSLSASVGDRVTITCRASQNISRWLAWYQQKPGKAPKLLIYAASSLQSGVPSRFSGSGSGTDFTLTISSLQPEDFATYYCQQAISFPLTFGGGTKVEIK
notes: as for B1

Biological target: T1, Human TMPRSS4 (Transmembrane protease, serine 4), wild type full length (human, UniProt Q9NRS4 1-437)
T1 construct: Type II membrane protein over-expressed on HEK293T cells (also endogenous on H1975 and LUDLU-1 cells); also called TMPRSS4 WT; HEK293T-TMPRSS4
Assay: flow cytometry, monoclonal phage on HEK293T-TMPRSS4 cells;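 further: bound phage detected with a PE-labelled mouse anti-M13 monoclonal antibody, read by flow cytometry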

T1 sequence (Q9NRS4 whole entry): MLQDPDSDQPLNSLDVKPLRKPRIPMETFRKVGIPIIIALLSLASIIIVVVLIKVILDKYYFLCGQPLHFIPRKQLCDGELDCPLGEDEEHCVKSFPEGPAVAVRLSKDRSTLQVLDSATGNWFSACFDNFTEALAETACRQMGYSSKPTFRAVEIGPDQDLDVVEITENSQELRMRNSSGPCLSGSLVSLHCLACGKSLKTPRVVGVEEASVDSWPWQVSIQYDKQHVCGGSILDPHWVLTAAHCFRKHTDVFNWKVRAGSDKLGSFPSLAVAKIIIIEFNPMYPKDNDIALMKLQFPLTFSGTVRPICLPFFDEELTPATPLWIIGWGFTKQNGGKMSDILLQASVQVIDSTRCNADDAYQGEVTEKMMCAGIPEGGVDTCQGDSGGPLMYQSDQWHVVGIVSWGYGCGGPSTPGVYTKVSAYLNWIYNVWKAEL

Row | Binder | binding result
1 | B1 | binds
2 | B2 | binds
3 | B3 | binds
4 | B4 | binds
5 | B5 | binds
6 | B6 | binds
7 | B7 | binds
8 | B8 | binds
9 | B9 | binds
10 | B10 | binds
11 | B11 | binds
12 | B12 | binds
13 | B13 | binds
14 | B14 | binds
15 | B15 | binds
16 | B16 | binds
17 | B17 | binds
18 | B18 | binds
19 | B19 | binds
20 | B20 | binds
